The target of this assay is T1, IL-15Rα constitutively expressed on Raji cells (UniProt Q13261 31-267, limits assumed).
T1 construct: whole, on cells; also called IL-15R-expressing Raji cells
Put plainly: flow cytometry, IL-15Rα-expressing Raji cells without IL-15, biotinylated 146B7, streptavidin-PE; stimulation index. (In flow cytometry, cells or beads pass a laser one at a time.)

T1 sequence (Q13261 31-267 limits assumed): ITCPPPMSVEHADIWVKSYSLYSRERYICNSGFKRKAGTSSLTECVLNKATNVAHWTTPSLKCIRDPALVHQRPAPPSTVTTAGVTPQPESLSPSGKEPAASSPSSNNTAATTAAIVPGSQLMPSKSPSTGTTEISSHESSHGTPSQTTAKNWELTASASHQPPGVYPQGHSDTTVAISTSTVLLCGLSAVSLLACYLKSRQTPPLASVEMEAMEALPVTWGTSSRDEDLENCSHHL
Experimental: Raji cells are pre-incubated (20 minutes at 4° C.) with 10% human pooled AB serum (CLB, Amsterdam, Netherlands)in FACS buffer (PBS, 0.05%BSA, 0.02% NaNO₃). Raji cells (1-2*10⁵ cells/ml) were put in the wells, and 50 μl of unlabeled IL-15 was added in several concentrations (diluted in FACS buffer with 10% human AB serum). […] After washing twice in FACS buffer, 50 μl of streptavidin-phycoerythrin was added to each well (30 minutes at 4° C.). After washing twice in FACS buffer, cells were taken up in 200 μl of FACS buffer, and fluorescence intensity of at least 5000 cells per sample was determined after analysis by flow cytometry (FACS Calibur, Becton Dickinson) using CellQuest software.

B1: human anti-IL-15 antibody 146B7 (antibody, human IgG1, V domains shown)
VH: EVQLVQSGAEVKKPGESLKISCKVSGYFFTTYWIGWVRQMPGKGLEYMGIIYPGDSDTRYSPSFQGQVTISADKSISTAYLQWSSLKASDTAMYYCARGGNWNCFDYWGQGTLVTVSS
VL: EIVLTQSPGTLSLSPGERATLSCRASQSVSSSYLAWYQQKPGQAPRLLIYGASRRATGIPDRFSGSGSGTDFTLTISRLEPEDFAVYYCQRYGSSHTFGQGTKLEISR
notes: also called MDX015
Consider B1, for which the binding result is reported as “no binding (tested: 10000 (unit not printed on the sheet))”.

The record behind these values is patent US20040071702A1 (Genmab, published 2004).
